Measured values published in patent US20230279105A1 (SINGLE CELL TECHNOLOGY, published 2023).

B1: SCT-Fa053 (antibody, V domains shown)
VH: EVQLQQSGPVLVKPGASVKMSCKASGYSFTGYHMNWVKQSHGKSLEWIGIINPYNSATTYNQKFKGKATLTVDKSSSTAYMELNSLTSEDSVVYYCVRGAYGNPLDYWGQGTTLTVSS
VL: DIKMTQSPSSMYASLGERVTITCKASQDINSYLSWFQQKPGKSPKTLIYRANRLVDGVPSRFSGSGSGQDYSLTISSLEYEDMGIYYCLQYDEYPYTFGGGTKLEIK
notes: murine IgG
B2: SCT-Fa055 (antibody, V domains shown)
VH: EVQLQQSGPVLVKPGASVKMSCKASGYTFTDYHMNWVKQSHGKSLEWIGVISPYNGGTSQNQKFKGKATLTVDKSSSTAYMELNRLTSEDSAVYYCARSDYGSPLDYWGQGTTLTVSS
VL: DIKMTQSPSSMYASLGERVTITCKASQDINSYLRWFQQKPGKSPKTLIYRANRLVDGVPSRFSGSGSGQDYSLNISSLEYEDMGIYYCLQYDEFPYTFGGGTKLEIK
notes: murine IgG
B3: SCT-Fa059 (antibody, V domains shown)
VH: EVQLQQSGPVLVKPGASVKMSCQASGYSFTGYHMNWVKQSHGKSLEWIGIINPYNSGITYNQKFKGRATLTVDKSSDTAYMDLNSLTSEDSVVYYCVRGAYGNPLDYWGQGTTLTVSS
VL: DIRMTQSPSSIYASLGERVTITCKASQDINSYLSWFQQKPGKSPETLIYRTNRLVDGVPSRFSGSGSGQDYSLTISSLEYEDMGIYYCLQYDEYPYTFGGGTKLEIK
notes: murine IgG
B4: SCT-Fa052 (antibody, V domains shown)
VH: EVQLQQSGPVLVKPGASVKMSCKASGYSFTGYHMNWVKQSHGKSLEWIGIINPYNSASTYNQKFKGKATLTVDKSSSTAYMELNSLTSEDSVVYYCVRGAYGNPLDYWGQGTTLTVSS
VL: DIKMTQSPSSMYASLGERVTITCKASQDINSYLSWFQQKPGKSPKTLIYRTNRLVDGVPSRFSGSGSGQDYSLTISSLEYEDMGIYYCLQYDEYPYTFGGGTKLEIK
notes: murine IgG
B5: SCT-Fa061 (antibody, V domains shown)
VH: EVQLQQSGPVLVRPGASVKMSCKASGYSFTGYHMNWVKQSHVKSLEWIGIINPYNSATTYNQNFKGKATLTVDKSSSTAYMELNSLTSEDSVVYYCVRGAYGNPLDYWGQGTTLTVSS
VL: DIKMTQSPSSMYASLGERVTITCKASQDINSYLSWFQLKPGKSPKTLIYRANRLVDGVPSGFSGSGSGQDYSLTISSLEYEDMGIYYCLQYDEYPYTFGGGTKLEIK
notes: murine IgG
B6: SCT-Fa054 (antibody, V domains shown)
VH: EVQLQQSGPVLVKPGASVKMSCKASGYSFTGYHMNWVKQSHGKSLEWIGIINPYNSATTYNQKFKGKATLTVDKSSSTAYMEVNSLTSEDSLVYYCVRGAYGNPLDYWGQGTTLTVSS
VL: DIKMTQSPSSMYASLGERVTITCKASQDINSYLSWFQQKPGKSPKTLIYRANRLLDGVPSRFSGSGSGQDYSLTISSLEYEDMGIYYCLQYDEYPYTFGGGTKLEIK
notes: murine IgG
B7: SCT-Fa068 (antibody, V domains shown)
VH: EVQLQQSGTVLARPGASVKMSCKTSGYTFTRYWMHWVKQRPGQGLEWIGAIYPGNSDTNYNQKIKGKAKLTAVTTASTAYMELSSLTNEDSAVYYCTFYYGNYVNYWGQGTTLTVSS
VL: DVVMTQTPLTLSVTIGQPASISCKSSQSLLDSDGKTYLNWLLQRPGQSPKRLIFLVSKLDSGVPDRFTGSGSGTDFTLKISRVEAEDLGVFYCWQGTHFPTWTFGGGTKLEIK
notes: murine IgG
B8: SCT-Fa062 (antibody, V domains shown)
VH: EVQLQQSGTVLARPGASVKMSCKTPGYTFTRYWMHWVKQRPGQGLEWIGAIYPGNSDTNYNQKIKGKAKLTAVTTASTAYMELSSLTNEDSAVYYCTFYYGNYVNYWGQGTTLTVSS
VL: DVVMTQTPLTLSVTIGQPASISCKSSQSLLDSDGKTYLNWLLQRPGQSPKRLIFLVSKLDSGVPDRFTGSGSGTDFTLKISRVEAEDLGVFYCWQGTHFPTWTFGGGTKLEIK
notes: murine IgG
B9: SCT-Fa047 (antibody, V domains shown)
VH: EVQLQQSGPELVKPGASVKISCKASGYTFTDYYMNWVKQSHGKSLEWIGDINLNNGGTVYNQKFRGKATLTVDKSSSTAYMELRSLTSEDSAVYYCEGLGGYWGQGTTLTVSS
VL: DVLMTQTPLSLPVSLGDQVSISCRSSQSIVHSNGNTYLEWYLQKPGQSPNLLIYKVANRLSGVPDRFSGSGSGTDFTLKISRVEAEDLGVYYCFQGSHVPFTFGSGTKLEIK
notes: murine IgG
B10: SCT-Fa048 (antibody, V domains shown)
VH: EVQLQQSGPELVKPGASVKISCKASGYTLTDYYMNWVKQSHGESLEWIGDINPNNGDINYNQKFKGKATLTADKSSSTAYMELRSLTSEDSAVYYCEGLGGYWGQGTTLTVSS
VL: DVLMTQTPLSLPVSLGDQASISCRSSQTIVHSNGNTYLEWYLQTPGQSPKLLIYKVSNRISGVPDRFSGSGSGTDFTLKISRVEAEDLGVYYCFQGSHVPFTFGSGTKLEIK
notes: murine IgG
B11: SCT-Fa049 (antibody, V domains shown)
VH: EVQLQQSGPELVKPGSSVKISCKASGYTLTDYYMNWVKQSHGESLEWIGDINPNNGDINYNQKFKGKATLTADKSSSTAYMELRSLTSEDSAVYYCEGLGGYWGQGTTLTVSS
VL: DVLMTQTPLSLPVSLGDQASISCRSSQTIVHSNGNTYLEWYLQTPGQSPKLLIYKVSNRISGVPDRFSGSGSGTDFTLKISRVEAEDLGVYYCFQGSHVPFTFGSGTKLEIK
notes: murine IgG
B12: SCT-Fa005 (antibody, V domains shown)
VH: EVHLQQSVAEVVRPGASVNLSCTVSGFNNKNTYMYWVKQRPEQGLEWIGIIDPANGNVKYAPKFQGKATITADTSSNTAYLQLSSLTSEDTAIYYCARGSSRLYYALDYWGQGTSVTVSS
VL: DIVLTQSPASLAVSLGQRATISCRASESVDSYGNSFMHWYQQKPGQPPKLLIYRASNLESGIPARFSGSGSRTDFTLTIYPVEADDVATYYCQQSNEDPYTFGGGTKLEIK
notes: murine IgG
B13: SCT-Fa035 (antibody, V domains shown)
VH: EVQLQQSGAELVKPGASVKLSCTDFGFNIKDYYMHWVKQRTEQGLEWIGRIDPEDGETKYVPKFQGKATITADTSSNTAFLHLTSLTSEDTAVYYCARSNPYYFDYWGQGTTLTVSS
VL: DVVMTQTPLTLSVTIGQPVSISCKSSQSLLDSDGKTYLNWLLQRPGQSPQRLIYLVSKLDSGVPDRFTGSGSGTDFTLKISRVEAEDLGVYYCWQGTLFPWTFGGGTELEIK
notes: murine IgG
B14: SCT-Fa057 (antibody, V domains shown)
VH: EVQLQQSGPVLVKPGASVKMSCKASGYTFTDYYMNWVKQSHGKSLEWIGVINPYNGGTSYNQKFKGKATLTVDKSSSTAYMELNSLTSEDSAVYYCARGGDYDVNYSAMDYWGQGTSVTVSS
VL: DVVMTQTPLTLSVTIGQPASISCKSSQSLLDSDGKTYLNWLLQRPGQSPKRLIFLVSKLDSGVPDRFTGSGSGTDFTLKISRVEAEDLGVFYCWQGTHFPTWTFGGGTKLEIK
notes: murine IgG
B15: SCT-Fa003 (antibody, V domains shown)
VH: EGKLEESGGGLVQPGGSMKLSCAASGFTFSDAWMDWVRQSPKKGLEWVAEIRNKANKHSKHYAESVKGRFTISRDDSKSSVYLQMNSLRAEDTGIYYCSYDYIFAYWGQGTLVTVSA
VL: DVVMTQTPLSLPVSLGDQASISCRSSQSLVHSNGNTYLHWYLQKPGQSPKLLIYKVSNRFSGVPDRFSGSGSGTDFTLKISRVEAEDLGVYFCSQSTHVPWTFGGGTKLEIK
notes: murine IgG
B16: SCT-Fa046 (antibody, V domains shown)
VH: EVQLQQSGPELVKPGASVKISCKASGYTFTDYNMHWVKQSHGKSLAWIGYIYPYNGGTGYNQKFKNKATLTVDDSSSTAYMDLRSLTSDDSAVYYCAREDYGSREWFAYWGQGTLVTVSA
VL: DVVMTQTPLSLPVSLGDQASISCRSSQSLVHSNGNTYLYWYLQKPGQSPKLLIYKVSNRFSGVPDRFSGSGSGTDFTLKISRVEAEDLGVYFCSQSTHVPLTFGAGTKLELK
notes: murine IgG
B17: SCT-Fa027 (antibody, V domains shown)
VH: EVQLQQSGAELVKPGASVKLSCTASGFNIKDYYIHWVKQRTDQGLEWIGRIDPDNGETKYAPKFQGKATITADTSSNTAYLQLGSLTSEDTAVYYCARSSPYYFDYWGQGTTLTVSS
VL: DIQMNQSPSSLSASLGDTITITCHASQNINVWLSWYQQKPGNIPKLLIYKASNLHTGVPSRFSGSGSVTGFTLTISSLQPEDIATYYCQQGQNFPYTFGGGTKLEII
notes: murine IgG
B18: SCT-Fa034 (antibody, V domains shown)
VH: EVQLQQSGAELVKPGASVKLSCTDFGFNIKDYYMHWVKQRTEQGLEWIGRIDPEDGETKYVPKFQGKATITADTSSNTAFLHLTSLTSEDTAVYYCARSNPYYFDYWGQGTTLTVSS
VL: DIQMNQSPSSLSASLGDTVTITCHASQTINVWLSWYQQKPGNIPKLLIYKASNLHTGVPSRFSGSGSGTGFTLTISSLQPEDIATYYCQQGQNYPYTFGGGTKLEIK
notes: murine IgG
B19: SCT-Fa043 (antibody, V domains shown)
VH: EVQLQQSGAELVRPGASVKLSCTASGFNIKDYYMHWVKQRTEQGLEWIGRIDPDNDEIKYAPKFQGKATLTADTSSNTASLQLSGLTSEDTAVYYCARSSPYYFDYWGQGTTLTVSS
VL: DIQMNQSPSSLSASLGDTITITCHASQNINVWLSWYQQKPGNIPKLLIYKASNLHTGVPSRFSGSGSVTGFTLTISSLQPEDIATYYCQQGQNIPYTFGGGTQLEIK
notes: murine IgG
B20: SCT-Fa028 (antibody, V domains shown)
VH: EVQLQQSGAELVKPGASVKLSCTASGFNIKDYYMHWVKQRTDHGLEWIGRIDPDNGETKYAPKFQGKATITADTSSNTAYLQLGSLTSEDTAVYYCARSSPYYFDYWGQGTTLTVSS
VL: DIQMNQSPSSLSASLGDTITITCHASQNINVWLSWYQQKPGNIPKLLIYKASNLHTGVPSRFSGSGSVTGFTLTISSLQPEDIATYYCQQGQNFPYTFGGGTKLEIK
notes: murine IgG
B21: SCT-Fa031 (antibody, V domains shown)
VH: EVQLQQSGAELVKPGASVKLSCTASGFNIKDYYMHWVKQRTEQGLEWIGRIDPEDGETKYVPKFQGKATITADTSSNTAFLHLTSLTSEDTAVYYCARSNPYYFDYWGQGTTLTVSS
VL: DIQMNQSPSSLSASLGDTVTITCHASQTINVWLSWYQQKPGNIPKLLIYKASNLHTGVPSRFSGSGSGTGFTLTISSLQPEDIATYYCQQGQNYPYTFGGGTKLEIK
notes: murine IgG
B22: SCT-Fa033 (antibody, V domains shown)
VH: EVQLQQSGAELVKPGASVKLSCTASGFNIKDYYMHWVRQRTEQGLEWIGRIDPEDGETKYAPKFQGKATITAATSSNTPYLQLSGLTSEDTAVYYCGRSNPYYFDYWGQGTTLTVSS
VL: DIQMNQSPSSLSASLGDRITINCHASQNINVWLSWYQQKPGNIPKLLIYKASNLHTGVPSRFSGSGSVTVFTLTISSLQPEDIATYYCQQGQNYPYTFGGGTKLEIK
notes: murine IgG
B23: SCT-Fa050 (antibody, V domains shown)
VH: EVQLQQSGPMLVKPGASVKMSCKASGNTFTAFYMSWVKQSHGKSLEWIGVVNPYNGGAGYNQKFKGKATLTVDKSSSTAYMELNGLTSEDSAVYYCLLWEFAHWGQGTLVTVSA
VL: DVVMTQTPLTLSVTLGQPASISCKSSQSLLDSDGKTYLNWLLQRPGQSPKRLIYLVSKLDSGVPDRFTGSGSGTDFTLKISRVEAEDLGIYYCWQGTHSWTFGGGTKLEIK
notes: murine IgG

What follows are binders tested against T1, Human TIM-3 Human Fc tagged protein (human, fluorescently labeled with HiLyte Fluor 555 (sites not given)) (assay: capture slide probed with labeled TIM-3-Fc;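 note: IgG from single CD138-enriched plasma cells, isolated from lymphocytes, immobilized on a derivatized glass slide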).
T1 construct: Bought construct; also called TIM-3 protein tagged with human Fc; ACROBiosystems catalog no: TM3-H5258

Binding result, binds:
B1
B2
B3
B4
B5
B6
B7
B8
B9
B10
B11
B12
B13
B14
B15
B16
B17
B18
B19
B20
B21
B22
B23
